Test [1] concerns the target soluble TACE M-domain (wild type) (Homo sapiens) (UniProt P78536). The test is described as follows: SPR. (SPR reads the build-up and loss of mass on a sensor chip optically.)
Test [2] addresses recombinant soluble TACE ECD (human) (UniProt P78536). In words: SPR.

Experimental findings from publication PMC5098442 are described below.

As usually defined, the Kd is the free concentration of one partner at which half of the binding sites on the other are occupied at equilibrium, for simple one-to-one binding. With MEDI3622 (antibody), the Kd in test [1] was found to be 2.3 nM; in test [2] it was 2 nM.
